Measurements taken from the supplement of paper PMC10201428.
± gives the standard deviation of the averaged measurements.

B1: library; a variant is named by its letters at N, in order (parent)
chain: AATGTTGTTGATGCAACCATAAAGTGATATTTAATAATTATTTATAATCAGCAACTTAACCACAAAACAACCATATATTGATATNTCACAAAACAACCATAANTTGATATTTTTGTGAATCGAGTATTTCAGCAAAACTACTGCAGTAAGAA

Experiments:
[1] = variants of: B1; test: relative integration efficiency (T-LR orientation) vs wild-type transposon end (log2 (normalized fold change)); transposon end mutated: left end; higher = more efficient transposition; settings: with VchCAST RNA-guided transposition machinery (E. coli BL21(DE3) host, lacZ target)
Summary of the method: (§1)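 Each barcoded pool, 1549 left-end or 1849 right-end transposon variants in a pUC57 mini-transposon donor, went into E. coli BL21(DE3) with a T7-driven effector plasmid (CRISPR array, tniQ-cas8-cas7-cas6, tnsA-tnsB-tnsC). Plates contained 0.1 mM IPTG and were held at 37°C for 18 h. Input plasmids and genomic integration junctions were PCR-amplified and read by Illumina sequencing, with two biological output replicates and four reference barcodes. Relative integration efficiency is the fold change of output over input barcode abundance, normalised to the reference barcodes and log-transformed.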

[2] = variants of: B1; test: relative integration efficiency (T-RL orientation) vs wild-type transposon end (log2 (normalized fold change)); transposon end mutated: left end; higher = more efficient transposition; settings: with VchCAST RNA-guided transposition machinery (E. coli BL21(DE3) host, lacZ target)
Summary of the method: as §1

Variant | relative integration efficiency (log2) [1] | relative integration efficiency (log2) [2]
CG A11C T12G G13T C14A | -1.55 ± 0.089 | -0.699 ± 0.47
CG A40T T41A | -0.491 ± 0.97 | -0.0047 ± 0.075
CA G24A T30A T104A T110A T113A | -0.0948 ± 0.19 | -0.387 ± 0.2
CG A37C T38G | -0.172 ± 0.0031 | -0.236 ± 0.044
CG A16C C17A | -0.804 ± 0.72 | -0.728 ± 0.41
CG A1T A2T T3A G4T T5A | -0.359 ± 0.037 | -0.373 ± 0.043
CA T104G T113A | -0.00439 ± 0.14 | -0.216 ± 0.19
TG A23G G24T A33T A70C T76A T84A C87A | 0.473 ± 0.22 | 0.022 ± 0.35
CG A34C A36G T38C A40G T42C A62G A65G A66C | -0.589 ± 0.68 | -0.685 ± 0.25
CG A16C G24T T30A | -0.135 ± 0.14 | -0.3 ± 0.21
CC A23T G24C A77T T78A T104A | -0.642 ± 0.69 | -0.611 ± 0.28
CC | 0.321 ± 0.75 | -0.0693 ± 0.024
CG | -0.0136 ± 0.21 | -0.00322 ± 0.1
CG A34C A36G T38C T42C A62G A65G A66C | -0.874 ± 0.72 | -0.721 ± 0.33
CG A34C T35G | 0.139 ± 0.22 | -0.109 ± 0.025
TA T76A T78A T84A C87A A96C T110A T113A | 0.0631 ± 0.19 | 0.318 ± 0.081
CG A46C | -0.118 ± 0.76 | -0.291 ± 0.11
CG A46T | -0.195 ± 0.93 | -0.0773 ± 0.14
CG A46G | -0.0959 ± 0.59 | -0.0807 ± 0.18
CG A36G T42C A62G A65G A66C | -0.297 ± 0.32 | -0.575 ± 0.29
CG A47G T48G C52T A53G C55G T56C T57G A58C C60A A62G A66T A67T | -3.24 ± 2.1 | -2.77 ± 0.78
TA G24A T30A T76A T78A T84A C87A A102T T111C T113C | -0.493 ± 1.1 | -0.0919 ± 0.22
CG A21C | -1.47 ± 0.6 | -0.867 ± 0.55
CG A21G | -0.166 ± 0.32 | -0.412 ± 0.49

Variant | relative integration efficiency (log2) [1] | relative integration efficiency (log2) [2]
CG A21T | -0.384 ± 0.81 | -0.164 ± 0.16
TG A16C G24T T30A T76A A77G C87T | -0.0311 ± 0.37 | -0.534 ± 0.47
CG A27T A81T A107T | -2.46 ± 1.4 | -3.03 ± 1.3
AG | 0.27 ± 0.094 | 0.00541 ± 0.045
CG A22C A23C G24T T25G | -2.32 ± 0.92 | -2.89 ± 0.82
CG A40C T41G T42G T43G | -0.1 ± 0.062 | 0.139 ± 0.11
CG A1C | 0.307 ± 0.19 | -0.0236 ± 0.1
CG A1T | 0.281 ± 0.54 | 0.063 ± 0.045
CG A1G | 0.115 ± 0.63 | 0.133 ± 0.095
CG A1C A2C T3G G4T | -0.0427 ± 0.68 | -0.346 ± 0.11
CG A23T G24C | 0.111 ± 0.07 | -0.0468 ± 0.13
TA T76A T78A T84A C87A A96C T112G T113C | -0.207 ± 0.74 | 0.00846 ± 0.17
CG A22T A23T G24C T25A | -1.61 ± 0.58 | -1.21 ± 0.56
CG A1T A2T | 0.429 ± 0.098 | 0.223 ± 0.059
CG A1T A2T G4T T5G | -0.165 ± 0.16 | -0.0703 ± 0.2
CG A44C T45G A46C A47C | 0.0873 ± 0.37 | -0.21 ± 0.22
TG A16C G24T T32G A33C T76A T78G C87A | 0.456 ± 0.7 | 0.525 ± 0.38
CG A11T T12A G13C C14G | -2.81 ± 1.2 | -0.558 ± 0.43
CG A16T A70T A96T | -1.37 ± 0.86 | -0.887 ± 0.43
TG A23G G24T A33T T76A T78G C87A | 0.632 ± 0.11 | 0.16 ± 0.09
CG A34T T35A | 0.192 ± 0.25 | 0.209 ± 0.033
CG A40G T42G T43A A44G T45C A46G A47G T48A C49T G51A | -1.07 ± 0.8 | -1.29 ± 0.32
CG A16C A70C A96C | -0.695 ± 0.11 | -0.475 ± 0.19
CG A36T | 0.0771 ± 0.068 | 0.0168 ± 0.042

Variant | relative integration efficiency (log2) [1] | relative integration efficiency (log2) [2]
CG A36C | -0.699 ± 0.7 | -0.216 ± 0.15
CG A36G | -0.222 ± 0.59 | -0.259 ± 0.23
CG A27T | -1.01 ± 1.3 | -0.545 ± 0.55
CG A27G | -0.486 ± 0.47 | -0.621 ± 0.35
CG A27C | -0.151 ± 0.13 | -0.383 ± 0.25
CG A1C A2G T3C G4C T5G | -0.385 ± 0.32 | -0.219 ± 0.027
CG A27C T28G A29C T30G | -2.34 ± 1.1 | -2.43 ± 0.93
CG A33G | 0.00747 ± 0.0001 | 0.292 ± 0.074
CG A33T | 0.232 ± 0.46 | 0.135 ± 0.21
CG A33C | 0.29 ± 0.052 | 0.172 ± 0.082
CG A15C | 0.321 ± 0.27 | 0.0839 ± 0.1
CG A15G | -0.118 ± 0.26 | -0.121 ± 0.26
CG A15T | 0.37 ± 0.27 | -0.148 ± 0.14
CG A23G | 0.359 ± 0.084 | -0.0169 ± 0.11
CG A23T | 0.0168 ± 0.12 | 0.086 ± 0.23
CG A23C | 0.494 ± 0.15 | -0.467 ± 0.23
CG A29T T30A | 0.489 ± 0.49 | 0.23 ± 0.29
TA G24A T30A T76A T78G C87A A96C T112G T113C | 0.0921 ± 0.22 | 0.299 ± 0.056
TA G24A T30A T76A T78G C87A T104A T110A T113A | 0.464 ± 0.53 | -0.242 ± 0.034
TG A23G G24T A33T A70C T76A T86G | -0.0695 ± 0.1 | -0.149 ± 0.11
CC T100A A101T A102T | -0.124 ± 0.68 | -0.77 ± 0.44
CG A21T A75T A101T | -1.38 ± 0.99 | -1.31 ± 0.37
CG A19T A73T A99T | -2.5 ± 0.48 | -2.22 ± 0.88
TG A23G G24T A33T T76A A77G C87T | 0.312 ± 0.44 | -0.26 ± 0.39

Variant | relative integration efficiency (log2) [1] | relative integration efficiency (log2) [2]
TA T76A A77G C87T A96C T112G T113C | -0.4 ± 0.34 | -0.203 ± 0.3
CG A15C A16C C17A C18A | -2.02 ± 1.9 | -1.89 ± 0.66
CG A15C A16C | -0.641 ± 0.48 | 0.081 ± 0.27
CG A19T | -0.706 ± 1.6 | -0.267 ± 0.38
CG A19G | -0.219 ± 0.077 | -0.352 ± 0.074
CG A19C | -1.53 ± 1 | -1.49 ± 0.49
TG | 0.322 ± 0.57 | 0.126 ± 0.046
CG A11T T12A | -1.18 ± 0.28 | -0.325 ± 0.19
CG A16G | -0.395 ± 0.6 | -0.205 ± 0.27
CG A16T | -0.444 ± 0.68 | 0.0359 ± 0.064
CG A16C | -0.374 ± 0.29 | -0.26 ± 0.13
CC T104A T105A G106C | -2.2109 ± 0.0012 | -1.71 ± 0.67
TA T76A T78G C87A A102T T111C T113C | -0.0555 ± 0.34 | -0.0993 ± 0.033
TG A22T G24T T31C A33C T76A T78G C87A | 1.14 ± 0.4 | 0.463 ± 0.49
CG A37T T38A T39A A40T | 0.186 ± 0.28 | 0.137 ± 0.049
TG A16C G24T T32G A33C A70C T76A T86G | -0.468 ± 0.42 | -0.731 ± 0.36
TG A16C G24T T32G A33C A70C T76A T84A C87A | -0.64 ± 0.74 | -0.378 ± 0.44
TG A22T G24T T31C A33C T76A A77G C87T | -0.123 ± 0.13 | -0.61 ± 0.41
CG A40C T41G | 0.224 ± 0.022 | -0.0298 ± 0.00035
CG A22T A23T | -0.158 ± 0.56 | -0.421 ± 0.27
TA G24A T30A T76A T78A T84A C87A T104A T110A T113A | 0.184 ± 0.12 | 0.0385 ± 0.19
TG A22T G24T T31C A33C A70C T76A T86G | -0.285 ± 0.49 | -0.627 ± 0.19
CG A2T T3A G4C T5A | -0.131 ± 0.037 | -0.0191 ± 0.036
CG A29C T30G T31G T32G | -0.555 ± 0.56 | -0.723 ± 0.61

Variant | relative integration efficiency (log2) [1] | relative integration efficiency (log2) [2]
CC A22T A23T G24C T25A T76A A77T T78A T79A A102T T104A T105A | -2.83 ± 0.82 | -3 ± 1.3
CG A1C A2C T3G G4T T5G | -0.299 ± 0.17 | -0.197 ± 0.14
TA G24A T30A T76A T78G C87A A96C T110A T113A | 0.291 ± 0.89 | 0.0775 ± 0.15
CC A102T T104A T105A | -0.708 ± 0.07 | -0.322 ± 0.48
CG A47T | 0.0475 ± 0.098 | 0.0568 ± 0.074
CG A47G | -0.05 ± 0.31 | -0.131 ± 0.15
CG A47C | -0.251 ± 0.89 | -0.0577 ± 0.11
CG A21C A75C A101C | -3.75 ± 1.3 | -3.08 ± 0.72
CG A46T A47T T48G C49T A50G G51A C52G A53C A54G C55G T56A C61A | -1.93 ± 2 | -1.9 ± 0.78
CG A36T A37T T38A T39A | 0.111 ± 0.38 | 0.0771 ± 0.077
CG A47C T48G C49A A50C | -1.93 ± 0.6 | -1.5 ± 0.48
CG A19T T20A | -0.844 ± 0.51 | -1.12 ± 0.56
CG A29T T30A T31A T32A | -0.245 ± 0.11 | -0.49 ± 0.46
CG A1T A2T T3A G4C | 0.144 ± 0.82 | 0.164 ± 0.1
TA G24A T30A T76A T78G C87A T104G T113A | -0.302 ± 0.11 | -0.161 ± 0.15
CG A29T A83T A109T | -0.979 ± 0.74 | -0.428 ± 0.23
CG A29C A83C A109C | -1.94 ± 0.43 | -1.65 ± 0.57
CG A23G G24T A33T | 0.0764 ± 0.17 | -0.108 ± 0.099
CG A36C A37C | 0.196 ± 0.61 | 0.127 ± 0.018
CG A37C T38G T39G A40C | 0.21 ± 0.43 | -0.0337 ± 0.1
